From the supplement of paper PMC10567573
± gives the standard deviation.

Experiment: protein stability index of a GFP-peptide fusion (GPS, HEK-293T) (PSI 1-6); higher = more stable
Conditions: c terminus: a fixed tail appended
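Note: 24-mer peptide tiles fused after GFP, lentivirally expressed, FACS-sorted into six equal bins by GFP/DsRed ratio, decoded by Illumina sequencing, PSI is the read-weighted mean bin number.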

Sequence	protein stability index (treatment: DMSO)	protein stability index (treatment: MLN4924 1 uM, 8 h)
TYKHINEVYYAKKKRRAQQAPPQD [DYRK1B]	3.7 ± 0.085	3.66 ± 0.21
TLYRNRSNLETIFRIIDSDHSGFI [PPEF2]	2.06 ± 0.4	1.99 ± 0.099
RTNLPIFKLKESCVRRRYSDFEWL [SNX12]	2.27 ± 0.29	2.74 ± 0.56
FGGGSTRGGSLLAGGGGFGGGSLS [KRT15]	2.54 ± 0.43	3.11 ± 0.52
VLTEPILIETYTGLMSFIGNRNKL [TPRG1]	2.21 ± 0.36	2.27 ± 0.51
TLGSSFIPGEHFWLLLLTRGLVGV [SPNS1]	3.15 ± 1.4	3.21 ± 0.84
MGGPFSYVYFFCTVPEILVHNIVI [TMEM106C]	3.23 ± 0.51	3.19 ± 0.82
QEARERWNFDFVTETPLEGDFAWE [CDKN1A]	4.39 ± 0.29	4.29 ± 0.24
RRSNSPDKFKRPTPPPSPNTQTPV [CCDC6]	5.27 ± 0.19	5.25 ± 0.16
EQRDQLERTKSRLVNTSENLSKSR [VTI1B]	5.18 ± 0.31	5.01 ± 0.18
NNFSPLHLAVDKNTTCVGRYPVCK [FEM1C]	3.42 ± 0.15	3.52 ± 0.12
FIMLSCVQLQRIPLSAVYRICLGK [TPRG1]	3.06 ± 0.75	2.01 ± 0.43
HVTCVDQSEHTMVLRCQLSAEEVR [C2CD2L]	3.73 ± 0.19	3.82 ± 0.18
EMQQQMSLGELCHPVPLSFEPVKS [TRIM14]	3.62 ± 0.22	4.05 ± 0.31
TPAEGDTEEDDGFVDILESDLKDD [CDC25B]	5.34 ± 0.3	5.62 ± 0.24
RGIFVVRGENVVLLGEIDLEKESD [LSM1]	2.37 ± 0.23	2.31 ± 0.52
FALQSDLDQPAFQQLVSFSESGSL [ISL2]	2.91 ± 0.37	3.03 ± 0.3
AEKLKAQGEYSRKLEERFMTLAAN [CCDC89]	3.4 ± 0.41	3.49 ± 0.45
KAVKYQSKARRKKIMIIICCVILG [STX1A]	2.18 ± 0.8	2.25 ± 0.43
PDEERPLRRPRPVQRTQSVPVRRP [RASAL3]	5.19 ± 0.27	5.21 ± 0.18
MHPINVRRDPSIPIYGLRQSILLN [C22orf31]	2.33 ± 0.22	2.63 ± 0.51
SYDELCFLEQRPQSPTLEFLLRNS [EDARADD]	3.1 ± 0.2	3 ± 0.1

Sequence	protein stability index (treatment: DMSO)	protein stability index (treatment: MLN4924 1 uM, 8 h)
TAGPITGLVYRLNRFRVEISFHFE [TRIM43]	3.02 ± 0.7	3.2 ± 0.52
RYLLCELVSDDPRCRLSLDDRVLS [POP5]	2.31 ± 0.25	2.36 ± 0.27
DILMEFGHLFPPPTPIFAGGANDR [WSB1]	2.41 ± 0.46	2.51 ± 0.45
YSGPPSPHGTLRVCTISSTGPLQP [PKD2L1]	2.65 ± 0.57	2.83 ± 0.3
ERQEEQSAAIHISETLEQKPHFES [EPB41L3]	5.43 ± 0.15	5.38 ± 0.28
ALAAIYEEKEAWYREESDSLGQDL [DAPK3]	–	4.6 ± 0.5
ESDVKHRTRDYKKTSLAPYVKVFE [PRIM1]	3.39 ± 0.33	3.62 ± 0.38
AQLYEDFLFPIDISLVKREHDFLD [DLC1]	2.52 ± 0.12	2.7 ± 0.28
FSGGKSGGNKKSDGVKESSESTNT [CAMK2A]	5.25 ± 0.2	5.36 ± 0.34
HCIQQILESVNHCHLNGIVHRDLK [CAMK2D]	2.26 ± 0.047	2.36 ± 0.5
SGYDGTFLFQKPGDKYEHHSYMGM [POMT2]	2.68 ± 0.23	2.5 ± 0.5
VIEPVVENSGILQGKLIKRQRLAK [EFHC1]	–	3.68 ± 0.65
GNGALSNISDLPFLAENSAFPKMA [LCOR]	3.72 ± 0.22	3.49 ± 0.17
VQAWPFTCLPLGVLMKGQHLHLET [PRAME]	2.58 ± 0.3	2.82 ± 0.39
PDREKGFHLDVEDYLSGVLILASE [TSN]	2.14 ± 0.1	2.81 ± 0.2
LKPLCGCHSFAAAADGPTVCCNPY [SMAD6]	2.75 ± 0.5	2.92 ± 0.39
YIRCQKEVGKSFERHKLKRQDADA [SMG5]	3.46 ± 0.53	3.43 ± 0.23
PTQLRALNLTEGFAVLHWKPPQNP [TNXB]	2.8 ± 0.66	3.04 ± 0.63
IKEIDEHAPGVPKILVGNRLHLAF [RAB40B]	1.93 ± 0.33	2.19 ± 0.36
YIHSCPKMKYKGQYRPSDLLCPET [ATE1]	2.06 ± 0.29	2.47 ± 0.34
LTLCRSDLEAQMESLKEELLSLKQ [KRT33B]	2.41 ± 0.28	2.8 ± 0.24
PWDKNPEALAKWAEGRTGFPWIDA [CRY1]	3.08 ± 0.17	3.04 ± 0.2

Sequence	protein stability index (treatment: DMSO)	protein stability index (treatment: MLN4924 1 uM, 8 h)
GEYPRWDAWSGSNAYHIERLMSFR [CRYBA1]	2.17 ± 0.22	2.41 ± 0.28
LVDNVYCIGQRRFHTMDELVEHYK [NCK2]	3.68 ± 0.24	3.96 ± 0.16
KSENARLVVQIDNAKLAADDFRTK [KRT33B]	4.4 ± 0.41	4.25 ± 0.27
TEDLCEKPDDEVKETAHDLDVKSP [RIPK4]	5.8 ± 0.26	5.62 ± 0.27
SQEEAQGLPSSELDAVENQLKWAS [ZNF24]	5.32 ± 0.2	5.08 ± 0.38
ACRANVKSGAIMSALSDTEIQREI [PPFIA4]	3.41 ± 0.29	3.57 ± 0.47
FTSGFNAAALDYEADGSTNNGIFQ [SPACA3]	2.67 ± 0.53	3.48 ± 0.74
NHRLISEILSESVVPDVRSVVTTA [SMARCE1]	3.31 ± 0.26	3.17 ± 0.56
RTTSVRCRGIPRGPVRPAIPPPLS [NEK8]	3.37 ± 0.1	3.64 ± 0.23
RMGDADYLAAWHRLVLPIAYEFNP [HDAC6]	2.27 ± 0.56	2.3 ± 0.44
KRQVPREQAQAYAERLGVTFFEVS [RAB40A]	3.11 ± 0.17	3.21 ± 0.31
VVIFQREPESKNAPHSQGEYDVYS [PPP2R2C]	2.5 ± 0.23	2.85 ± 0.27
HRLGSPYGHCTAGGEGVEVELLHN [SCNN1D]	3.9 ± 0.34	3.82 ± 0.37
SVTGLDPEARYLFLLDVIPVDGAR [TBX6]	2.15 ± 0.47	2 ± 0.13
VRFSLGTTTHAPPGVHRRYSALRE [PPFIA4]	2.72 ± 0.19	2.76 ± 0.19
HFLSKMPEAEENKQIIRKHAQTFV [CCND1]	3.39 ± 0.21	3.43 ± 0.29
MDVAISNNKKWILSASKDRTMRLW [WDR88]	2.38 ± 0.19	2.35 ± 0.32
FQNFSLHDPLYGKLFSTYLRPPHT [LPCAT4]	2.27 ± 0.36	2.12 ± 0.19
KYSFLQFDPAPRRGEPHVTRRTPD [PPP2CA]	4.04 ± 0.27	3.85 ± 0.19
TSALFWEQHDLVYGDWTSGENSDG [CLPTM1]	4.17 ± 0.18	4.34 ± 0.41
RWNKVKMVVSREEVELAYQEAMFN [SEPHS2]	2.62 ± 0.21	2.66 ± 0.29
